The results in this text go back to the nanobody polyreactivity screen of Harvey et al. (2022).

A short description of this data set: yeast display, Sf9 membrane polyspecificity reagent, FACS + sequencing; frameworks hold sequencing errors. The method, boiled down: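 A synthetic nanobody library was expressed on Saccharomyces cerevisiae BJ5465 by galactose induction for 36–48 hours. The library was stained for 1 hour at 4 °C with 10% biotinylated, detergent-solubilized Sf9 membrane reagent and enriched with streptavidin microbeads before FACS. Low and high (top ~1%) gates were set on anti-HA fluorescence for expression and streptavidin fluorescence for reagent binding, and each polyreactivity label reflects the gate of origin.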
Take “QVQLVESGGGLVQAGGSLRLSCAASGSIFYRYAMGWYRQAPGKERELVAAIRWSGGSTYYADSVKGRFTISRDNAKNTVYLQMNSQKPEDTAVYYCATEVSYGGYWSWYGYWGQGTQVTVSS”: the “polyreactivity (PSR sort gate)” value is “low polyreactivity”.

Consider “QVQLVESGGGLVQAGGSLRLSCAASGSIFYRYAMGWYRQAPGKERELVAGISWTGGTYYADSVKGRFTISRDNAKNTVYLQMNSLKPEDTAVYYCAATIWIAYRGWYSDYNYWGQGTQVTVSS”, for which the “polyreactivity (PSR sort gate)” value is “low polyreactivity”.

On to “QVQLVESGGGLVQAGGSLRLSCAASGSIFYRYAMGWYRQAPGKEWELVAAISYSGGSTYYADSVKGRFPISRDNAKNTVYVQMNSLKPEDTAVNYCATDYPPPISDYSRYYGYGYWGQGTQVTVSS”, for which the “polyreactivity (PSR sort gate)” value was “low polyreactivity”.

For “QVQLVESGGGLVQAGGSLRLSCAASGSIFYSNAMGWYRQAPGKEREFVAAISAGGGSTYYADSVKGRFTISRDNAKNTVYLQMNSLKPEDTAVYYCAAQPYKIIYPYDYWGQGTQVTVSS”, the “polyreactivity (PSR sort gate)” value is on record as “low polyreactivity”.

With “QVQLVESGGGLVQAGGSLRLSCAASGSIFYSNAMGWYRQAPGKERELVAAIRTSAGSTYYADSVKGRFTISRDYAKNTVYLQMTSLKPEDTAVYYCAAVTTYYYYDVTDYAYEYYYWGQGTQVTVSS”, the “polyreactivity (PSR sort gate)” value is recorded as “low polyreactivity”.

Turning to “QVQLVESGGGLVQAGGSLRLSCAASGSIFYSNAMGWYRQAPGKERELVAAISDGGTSTYYADSVKGRFTISRDNAKNTVYFQMNSLKPEDTAVYYCAAESTLQDWNWYKYYYWGQGTQVTVSS”, the “polyreactivity (PSR sort gate)” value is recorded as “low polyreactivity”.

Regarding “QVQLVESGGGLVQAGGSLRLSCAASGSIFYSNAMGWYRQAPGKERELVAAISDGGTSTYYADSVKGRFTISRDNAKNTVYLQMNSLKPEDTAVYYCAAESTLQDWNWYKYYYWGQGTQVTVSS”, the “polyreactivity (PSR sort gate)” value was “low polyreactivity”.

Take “QVQLVESGGGLVQAGGSLRLSCAASGSIFYSNVMGWYRQAPGKERELVAAIRYSGVGTYYADSVKGRFTISRDNAKNTVYLLMNSLKPEDTAVYYCNAVTKVGYLRRRDYWGQGTKVTVSS”: the “polyreactivity (PSR sort gate)” value was “low polyreactivity”.

For the sequence “QVQLVESGGGLVQAGGSLRLSCAASGSIFYSYAMGWYRQAPGKDRELVARITSSTGRTYYADSVKGRFTISRDNAKNTVYLQMNSLKPEDTAVYYCAARSASRSMDYWGQGTQVTVSS”, the “polyreactivity (PSR sort gate)” value is recorded as “high polyreactivity”.

In the case of “QVQLVESGGGLVQAGGSLRLSCAASGSIFYSYAMGWYRQAPGKERELVAAISWDASTYYADSVKGRFTISRDNAKNTVYLQMNSLKPEDTAVYFCNADIPYYFVYDAYDYWGQGTQVTVSS”, the “polyreactivity (PSR sort gate)” value is “low polyreactivity”.

Consider “QVQLVESGGGLVQAGGSLRLSCAASGSIFYSYAMGWYRQAPGKERELVAAISYSSGSTYYADSVKGRFTISRDNAKNTVYLQMNSLKPEDTAVYDCAAEGNGWQVDVTEVGEYDSWGQGTQVTVSS”, for which the “polyreactivity (PSR sort gate)” value is “high polyreactivity”.

Consider “QVQLVESGGGLVQAGGSLRLSCAASGSIFYSYAMGWYRQAPGKERELVADITITGSTYYADSVKGRFTISRDNAKNTVYLQMNSLKPEDTAVYYCDAVLAPGGYDYWGQGTQVTVSS”, for which the “polyreactivity (PSR sort gate)” value was “low polyreactivity”.

Consider “QVQLVESGGGLVQAGGSLRLSCAASGSIFYSYAMGWYRQAPGKERELVAVITRGGSTNYADSVKGRFTISRDNAKNTVYLQMNSLKPEDTAVYYCNKDRYGKVFRYPPYYRSSPYDYWGQGTQVTVSS”, for which the “polyreactivity (PSR sort gate)” value is on record as “high polyreactivity”.

Turning to “QVQLVESGGGLVQAGGSLRLSCAASGSIFYTNAMGWDRQAPGKERELVATITSSTGSTNYADSVKGRFTISRDNAKNTVYLQMNSLKPEDTAVYYCAKRDGYWVYYQMDYWGQGTQVTVSS”, the “polyreactivity (PSR sort gate)” value is “low polyreactivity”.

For “QVQLVESGGGLVQAGGSLRLSCAASGSIFYTNVRGWYRQAPGKAREFVAAITGGGGSTYYADSVKGRFTISRDNAKNTVYLQMNSLKPEDTAVYYCATKAKPRSGYNYWGQGTQVTVSS”, the “polyreactivity (PSR sort gate)” value was “low polyreactivity”.

For the sequence “QVQLVESGGGLVQAGGSLRLSCAASGSIFYTYAKGWYRQAPGKQRELVAGISWSGSDTYYADSVKGRFTISRDNAKNTVYLQMNSLKPEDTAVYYCNAETSTRKNFGYDYWGQGTQVTVSS”, the “polyreactivity (PSR sort gate)” value is recorded as “low polyreactivity”.

Take “QVQLVESGGGLVQAGGSLRLSCAASGSIFYTYAMGWSRQAPGKEREFVAAITSSGGSTYYADSVKGRFTISRDNAKNTVYLQMNSLKPEDTAVYYCAADSGSTSEYEYWGQGTQVTVSS”: the “polyreactivity (PSR sort gate)” value is “low polyreactivity”.

Turning to “QVQLVESGGGLVQAGGSLRLSCAASGSIFYTYAMGWYRQAPGKEREFVASITYRGSNTYYADSVKGRFTISRDNAKNTVYLQMNSLKPEDTAVYYCAADSFYYRPEYDYWGQGTKVTVSS”, the “polyreactivity (PSR sort gate)” value was “low polyreactivity”.

As to “QVQLVESGGGLVQAGGSLRLSCAASGSIFYTYAMGWYRQAPGKERELVATIRVSGVSTYADSVKGRFTISRDNAKNTVYLQMNSLKPEDTAVYYCNKVSFYEPIYWQQGYVLLDYWGQGTQVTVSS”, the “polyreactivity (PSR sort gate)” value is “low polyreactivity”.

“QVQLVESGGGLVQAGGSLRLSCAASGSIFYVNTMGWYRQAPGKERELVAAISDSSGGTYYADSVKGRFTISRDNAKNTVYLQMNSLKPEDPAVYYCARDSTSHYDSGPYSSPFDYWGQGTQVTVSS”: the “polyreactivity (PSR sort gate)” value is “low polyreactivity”.

Consider “QVQLVESGGGLVQAGGSLRLSCAASGSIFYVYAMGGYRQAPGKERELVAAISKSGGSTYYADSVKGRFTISRDNAKNTVYLQMNRLKPEDTAVYYCAAYFSYGSIIEDYWGQGTQVTVSS”, for which the “polyreactivity (PSR sort gate)” value was “low polyreactivity”.

Regarding “QVQLVESGGGLVQAGGSLRLSCAASGSIFYVYAMGWYRQAPGKERELDAGITTSGGSTYYADSVKGRFTISRDNAKNTVYLQMKSLKPEDTAVYYCATRNAFTAGSYNVYYGEYYWGQGTQVTVSS”, the “polyreactivity (PSR sort gate)” value is given as “low polyreactivity”.

On to “QVQLVESGGGLVQAGGSLRLSCAASGSIFYVYAMGWYRQAPGKERELVAAISFSGDTTYYADSVKGRFTISRDNAKNTVYLQMNSLKQEDTAVYYCAAEYYYTWVYQYWEMDYWGQGTQVTVSS”, for which the “polyreactivity (PSR sort gate)” value is given as “low polyreactivity”.

As to “QVQLVESGGGLVQAGGSLRLSCAASGSIFYVYAMGWYRQAPGKERELVAAITNYADSVKGRFTISRDNAKNTVYLQMNSLKPEDTAVYYCAADWWRVEMDYWGQGTQVTVSS”, the “polyreactivity (PSR sort gate)” value is on record as “low polyreactivity”.

In the case of “QVQLVESGGGLVQAGGSLRLSCAASGSIFYVYAMGWYRQAPGKERELVASISWGDSSTYYADSVKGRFTISRDNAKNTVYLQMNSLKPDDTAVYYCAADEYRQYALYDYWGQGTQVTVSS”, the “polyreactivity (PSR sort gate)” value is given as “low polyreactivity”.

Regarding “QVQLVESGGGLVQAGGSLRLSCAASGSIFYVYAMGWYRQAPGKERELVATISSSAGSTYYADSVKGRFTISRDNAKNTVYLQMNSLKPEDTAVYYCAVRQIYQTSDHRLQYDYWGQGTQVTVSS”, the “polyreactivity (PSR sort gate)” value is listed as “low polyreactivity”.

For the sequence “QVQLVESGGGLVQAGGSLRLSCAASGSIFYVYAMGWYRQAPGNERELVADITTRDGDTYYADSVKGRFTISRDNAKNTVYFQMNSLKPEDTAVYYCAADLNAYPQRAYDYWGQGTQVTVSS”, the “polyreactivity (PSR sort gate)” value was “low polyreactivity”.

In the case of “QVQLVESGGGLVQAGGSLRLSCAASGSIFYWYAMGWYRQAPGKERELVAAIDISDDTYYADSVKGRFTISRDNAKNTVYLQMNSLKPEDTAVYYCAARTTRWFYEYDWGQGTQVTVSS”, the “polyreactivity (PSR sort gate)” value is on record as “high polyreactivity”.

Take “QVQLVESGGGLVQAGGSLRLSCAASGSIFYYNAMGWYRQAPGKERELVAAISFRASSTYYADSVKGRFTISRDNAKNTVYLQMNSLKPEDTAVYYCASSHWHYIPRHHPYGDDYCGQGTQVTVSS”: the “polyreactivity (PSR sort gate)” value was “low polyreactivity”.

For the sequence “QVQLVESGGGLVQAGGSLRLSCAASGSIFYYNAMGWYRQAPGKERELVAAISWSGGSTYYADSVKGRFTISRDKAKNTVYLQMNSLKPEDTAVYYCNAVGWYTYFYGSRKYNSWGQGTQVTVSS”, the “polyreactivity (PSR sort gate)” value is given as “low polyreactivity”.

Turning to “QVQLVESGGGLVQAGGSLRLSCAASGSIFYYNAMGWYRQEPGKERELVATITSAVSTNYADSVKGRFTISRDNAKNTVYLQMNSLKPQDTAVYYCAADDYQVQYDYWGQGTQVTVSS”, the “polyreactivity (PSR sort gate)” value was “low polyreactivity”.

As to “QVQLVESGGGLVQAGGSLRLSCAASGSIFYYNMGWYRPAPGKERELVAAISGGGGSTFYADSVKGRFTISRDNAKNTVYLQMNSLKPEDTAVYYCAARATTRRKKRMDYWGQGTQVTVSS”, the “polyreactivity (PSR sort gate)” value was “high polyreactivity”.

As for “QVQLVESGGGLVQAGGSLRLSCAASGSIFYYYAMGWSRQAPGKERELVAGINSGDSTYYADSVKGRFTISRDNAKNTVYLQMNRLKPEYTAVYYCAASADWWYEYWGQGTEVTVSS”, the “polyreactivity (PSR sort gate)” value is listed as “low polyreactivity”.

As for “QVQLVESGGGLVQAGGSLRLSCAASGSIFYYYAMGWYRQAPGKERELVAAINGGDGRTYYADSVKGRFTISRDNGKNTVYLQMNSLKPEDTAVYYCAADWPGYSAYYYWGQGTQVTVSS”, the “polyreactivity (PSR sort gate)” value is “low polyreactivity”.

Take “QVQLVESGGGLVQAGGSLRLSCAASGSIFYYYAMGWYRQAPGKERELVAAITSGGSTYYADSVKGRFTISRDNAKNTVYLQMNSLKPEDTAVYYCAAYGYYRGYPFHWYDYWGQGTQVTVSS”: the “polyreactivity (PSR sort gate)” value was “high polyreactivity”.

Take “QVQLVESGGGLVQAGGSLRLSCAASGSIFYYYAMGWYRQAPGKERELVAAITVSGGRTYYADSVKGRFTISRDNAKNTVYLQMNSLKPEATAVYYCAAQIYGKYDYWGQGTQVTVSS”: the “polyreactivity (PSR sort gate)” value is reported as “low polyreactivity”.

For “QVQLVESGGGLVQAGGSLRLSCAASGSIFYYYAMGWYRQAPGKERELVADISRSGTSTYYADSVKGRFTISRDNAKNTVYLQMNSLKPEDTAVYYCNVLRVKSITYLMDYWGQGTQVTVSS”, the “polyreactivity (PSR sort gate)” value is recorded as “high polyreactivity”.

As for “QVQLVESGGGLVQAGGSLRLSCAASGSIFYYYAMGWYRQAPGKERELVADITRDCGTTYYADSVKGRFTISRDNAKNTVYLQMNSLKPEDTAVYYCNARSIVFDWSAGRAKMDYWGQGTQVTVSS”, the “polyreactivity (PSR sort gate)” value is reported as “low polyreactivity”.

In the case of “QVQLVESGGGLVQAGGSLRLSCAASGSIFYYYARGWYRQAPGKERELVAAITSGGRTKYADSVKGRFTISRDNAKNTVNLQMNSLKPEDTAVYYCNARNYGKYRTNDYWGQGTQVTVSS”, the “polyreactivity (PSR sort gate)” value is “high polyreactivity”.

In the case of “QVQLVESGGGLVQAGGSLRLSCAASGSIFYYYSMGWYRQAPGKERELVATISSTTTTYADSVKGRFTISRDNPINTVYLNMNSMKPEDTAVYYCSFDYWGHGTQVTVSS”, the “polyreactivity (PSR sort gate)” value is on record as “low polyreactivity”.

“QVQLVESGGGLVQAGGSLRLSCAASGSIIDLNAMGWYRKAHGKERELVAAISSGGITYYADSVKGRFTISRDNAKNTVYLHMNSLKPEDTAVYYCAARYNHYFSLYDYWGQGTQVTVSS”: the “polyreactivity (PSR sort gate)” value is given as “high polyreactivity”.
